Source: article PMC5597622, “Engineered factor Xa variants retain procoagulant activity independent of direct factor Xa inhibitors” (Nature Communications, 2017)
Like-named read-outs stand apart in the source and are kept apart here. Non-standard residues stand in square brackets, D forms with d. Residues, ends and D or L forms follow the SMILES beside them. *: point of attachment. dChg = N[C@@H](C(=O)O)C1CCCCC1; pNA = O=[N+]([O-])c1ccc(N*)cc1; Cbz = O=C(OCc1ccccc1)*; Moc = COC(=O)*

What was measured:
[1] = molecular target: RVV-X activated P. textilis liver FX (Pseudonaja textilis, UniProt Q1L659); assay: biochemical
[2] = molecular target: purified recombinant P. textilis venom FXa (v-FXa) (Pseudonaja textilis, UniProt Q56VR3); assay: biochemical
[3] = molecular target: RVV-X activated P. textilis venom FX (Pseudonaja textilis, UniProt Q56VR3); assay: biochemical
[4] = molecular target: RVV-X activated P. textilis isoform FX (Pseudonaja textilis, UniProt Q1L658); assay: biochemical
FXa-C [5] = test system: T1, FXa-C; type: biochemical; details: n = 2; read-out: S2765^a K m
T1 construct: His91-Tyr99 replaced with homologous region of P. textilis isoform FX

pd-FXa (h-FXa) [6] = molecular target: T2, pd-FXa (h-FXa) (Homo sapiens, UniProt P00742); type: biochemical; details: read-out: S2765^a K m; n = 2
T2 construct: gene F10; plasma-derived human FXa (Haematologic Technologies); free or prothrombinase-assembled with FV-810 and PCPS, see series

FXa-B [7] = test system: T3, FXa-B; type: biochemical; details: n = 2; read-out: S2765^b K m
T3 construct: His91-Tyr99 replaced with homologous region of T. carinatus venom FX

FXa-C [8] = test system: T1, FXa-C; type: biochemical; details: n = 2; read-out: S2765^b K m
pd-FXa (h-FXa) [9] = molecular target: T2, pd-FXa (h-FXa); type: biochemical; details: read-out: S2765^b K m; n = 2
FXa-B [10] = test system: T3, FXa-B; type: biochemical; details: n = 2; read-out: S2765^a K m
FXa-A [11] = test system: T4, FXa-A; type: biochemical; details: n = 2; read-out: S2765^a K m
T4 construct: His91-Tyr99 replaced with homologous region of P. textilis venom FX

wt-FXa (WT) [12] = molecular target: T5, wt-FXa (WT) (Homo sapiens, UniProt P00742); type: biochemical; details: read-out: S2765^b K m; n = 2
T5 construct: gene F10; free or prothrombinase-assembled with FV-810 and PCPS, see series

FXa-A [13] = test system: T4, FXa-A; type: biochemical; details: n = 2; read-out: S2765^b K m
wt-FXa (WT) [14] = molecular target: T5, wt-FXa (WT); type: biochemical; details: read-out: S2765^a K m; n = 2
FXa-B [15] = test system: T3, FXa-B; type: biochemical; details: read-out: SpecXa Michaelis–Menten constant (K m)
pd-FXa (h-FXa) [16] = molecular target: T2, pd-FXa (h-FXa); type: biochemical; details: read-out: SpecXa Michaelis–Menten constant (K m)
FXa-A [17] = test system: T4, FXa-A; type: biochemical; details: read-out: SpecXa Michaelis–Menten constant (K m)
wt-FXa (WT) [18] = molecular target: T5, wt-FXa (WT); type: biochemical; details: read-out: SpecXa Michaelis–Menten constant (K m)
FXa-C [19] = test system: T1, FXa-C; type: biochemical; details: read-out: SpecXa Michaelis–Menten constant (K m)
[20] = molecular target: recombinant wild-type human factor Xa (human)
[21] = molecular target: chimeric factor Xa variant B (human FXa with His91-Tyr99 replaced by the homologous region of Tropid (human | Tropidechus carinatus))
[22] = molecular target: chimeric factor Xa variant C (human FXa with His91-Tyr99 replaced by the homologous region of P. textilis isoform FX) (human | Pseudonaja textilis)
[23] = molecular target: plasma-derived human factor Xa (human)
[24] = molecular target: constitutively active partial B-domainless recombinant form of human FV (FV-810) (human) (UniProt P12259); assay: kinetic assay of prothrombinase assembly (rate of prothrombin activation); apparent; steady-state initial velocities of prothrombin activation at 25 °C in assay buffer (20 mM Hepes, 0.15 M NaCl, pH 7.5, 5 mM CaCl2, 0.1% PEG8000) with PCPS (50 µM); how the cofactor was varied is not told
FXa-C [25] = molecular target: T6, FXa-C (Homo sapiens, UniProt P00742, E317A/INS311KKFVPPQKA/K316L/N312Y/R313K/T315D/T318A); type: biochemical, human-snake chimera; details: rTAP 0.5–100 nM, 1 nM FXa, 30 min
T6 construct: made in house

FXa-B [26] = molecular target: FXa-B (Homo sapiens, UniProt P00742); assay: Inhibition of FXa by TFPI and rTAP (residual amidolytic activity); type: biochemical, human-snake chimera; details: rTAP 0.5–100 nM, 1 nM FXa, 30 min
FXa-B [27] = assay: as above; type: biochemical, human-snake chimera; details: in the chimeric FXa variants
wt-FXa = molecular target: T7, wt-FXa (Homo sapiens, UniProt P00742); assay: as above; type: biochemical
T7 construct: made in house; host or cells: HEK293 (co-transfected with furin)

pd-FXa = molecular target: T8, pd-FXa (Homo sapiens, UniProt P00742); type: biochemical
T8 construct: the heavy chain derived from α or β FXa (α/β), the FXa light chain (LC); purchased Haematologic Technologies (Essex Junction, VT, USA); host or cells: human plasma

FXa-A [28] = molecular target: FXa-A (Homo sapiens, UniProt P00742); type: biochemical, human-snake chimera; details: rTAP 0.5–100 nM, 1 nM FXa, 30 min
[29] = molecular target: recombinant wild-type human factor Xa (human); assay: inhibition of enzyme amidolytic activity (Morrison tight-binding fit)
[30] = molecular target: chimeric factor Xa variant B (human FXa with His91-Tyr99 replaced by the homologous region of Tropid (human | Tropidechus carinatus)); assay: as above
[31] = molecular target: chimeric factor Xa variant C (human FXa with His91-Tyr99 replaced by the homologous region of P. textilis isoform FX) (human | Pseudonaja textilis); assay: as above
[32] = molecular target: plasma-derived human factor Xa (human); assay: as above

COc1ccc(-n2nc(C(N)=O)c3c2C(=O)N(c2ccc(N4CCCCC4=O)cc2)CC3)cc1 [Apixaban, 1-(4-methoxyphenyl)-7-oxo-6-(4-(2-oxopiperidin-1-yl)phenyl)-4,5,6,7-tetrahydro-1H -pyrazolo[3,4-c]pyridine-3-carboxamide]
IC50 [1]: 12 nM | IC50 [2]: ≥ 100000 nM | IC50 [3]: ≥ 100000 nM | IC50 [4]: ≥ 100000 nM

O=C(NC[C@H]1CN(c2ccc(N3CCOCC3=O)cc2)C(=O)O1)c1ccc(Cl)s1 [Rivaroxaban, 5-chloro-N-({(5S)-2-oxo-3-[4-(3-oxomorpholin-4-yl)phenyl]-1,3-oxazolidin-5-yl}methyl)thiophene-2-carboxamide]
IC50 [2]: ≥ 30000 nM

N=C(N)NCCC[C@H](NC(=O)CNC(=O)[C@@H](CCCNC(=N)N)NC(=O)OCc1ccccc1)C(=O)Nc1ccc([N+](=O)[O-])cc1 [S2765, N-α-benzyloxycarbonyl-D-Arg-Gly-Arg-pNA] (Cbz-[dR]-Gly-Arg-pNA)
Km (FXa-C [5]): 60 ± 11 µM | Km (pd-FXa (h-FXa) [6]): 59 ± 19 µM | Km (FXa-B [7]): 249 ± 29 µM | Km (FXa-C [8]): 216 ± 28 µM | Km (pd-FXa (h-FXa) [9]): 29 ± 8 µM | Km (FXa-B [10]): 49 ± 8 µM | Km (FXa-A [11]): 39 ± 7 µM | Km (wt-FXa (WT) [12]): 26 ± 8 µM | Km (FXa-A [13]): 243 ± 50 µM | Km (wt-FXa (WT) [14]): 33 ± 7 µM

COC(=O)N[C@@H](C(=O)NCC(=O)N[C@@H](CCCNC(=N)N)C(=O)Nc1ccc([N+](=O)[O-])cc1)C1CCCCC1 [SpecXa, methoxycarbonylcyclohexylglycylglycyl-Arg-pNA] (Moc-[dChg]-Gly-Arg-pNA)
Km (FXa-B [15]): 658 µM | Km (pd-FXa (h-FXa) [16]): 138 µM | Km (FXa-A [17]): 645 µM | Km (wt-FXa (WT) [18]): 135 µM | Km (FXa-C [19]): 659 µM

antithrombin (from UniProt P01008 33-464) (natural protein)
k 2, UFH: second-order rate constant of FXa inhibition by antithrombin with unfractionated heparin [20]: 3.09e+06 M⁻¹ s⁻¹ | k 2, uncatalyzed: second-order rate constant of FXa inhibition by antithrombin [20]: 4070 M⁻¹ s⁻¹ | k 2, UFH: second-order rate constant of FXa inhibition by antithrombin with unfractionated heparin [21]: 1.02e+06 M⁻¹ s⁻¹ | k 2, uncatalyzed: second-order rate constant of FXa inhibition by antithrombin [21]: 410 M⁻¹ s⁻¹ | k 2, UFH: second-order rate constant of FXa inhibition by antithrombin with unfractionated heparin [22]: 6.73e+06 M⁻¹ s⁻¹ | k 2, uncatalyzed: second-order rate constant of FXa inhibition by antithrombin [22]: 950 M⁻¹ s⁻¹ | k 2, UFH: second-order rate constant of FXa inhibition by antithrombin with unfractionated heparin [23]: 3.59e+06 M⁻¹ s⁻¹ | k 2, uncatalyzed: second-order rate constant of FXa inhibition by antithrombin [23]: 1550 M⁻¹ s⁻¹

chimeric factor Xa variant B (human FXa with His91-Tyr99 replaced by the homologous region of Tropid (enzyme)
Kd [24]: 0.85 nM

chimeric factor Xa variant C (human FXa with His91-Tyr99 replaced by the homologous region of P. textilis isoform FX) (enzyme)
Kd [24]: 0.57 nM

plasma-derived human factor Xa (enzyme)
Kd [24]: 0.41 nM

rTAP (YNRLCIKPRDWIDECDSNEGGERAYFRNGKGGCDSFWICPEDHTGADYYSSYRDCFNACI)
Ki (FXa-C [25]): 20.2 ± 6.56 nM | Ki (FXa-B [26]): 7.92 ± 1.88 nM | fold reduced binding (FXa-B [27]): at least 11 fold | Ki (wt-FXa): 0.7 ± 0.04 nM | Ki (pd-FXa): 0.87 ± 0.18 nM | Ki (FXa-A [28]): 26.3 ± 8.45 nM

recombinant tick saliva anticoagulant protein (from UniProt P17726 1-60) (natural protein)
Ki [29]: 0.7 nM | Ki [30]: 7.92 nM | Ki [31]: 20.2 nM | Ki [32]: 0.87 nM

recombinant wild-type human factor Xa (enzyme)
Kd [24]: 1.44 nM

tissue factor pathway inhibitor alpha (from UniProt P10646-1 29-304) (natural protein)
Ki [29]: 1.62 nM | Ki [30]: 4.41 nM | Ki [31]: 6.46 nM
